Like-named read-outs stand apart in the source and are kept apart here. Values belong to the substance of their own block, whether it stands above or below them.
Assays:
[1] = target: Oregon Green-labeled DAT C13 peptide (not stated (human DAT is named for the β2-DAT8 constructs)); assay: fluorescence polarisation; saturation: PICK1 diluted to various concentrations, 20 nM OrG DAT C13; 50 mM Tris pH 7.4, 125 mM NaCl, 1 mM DTT, 0.01% Triton X-100; 30 min on ice
[2] = target: TAC-YFP-DAT C24 (C-terminus of the dopamine transporter on TAC-YFP) (not stated | not stated (human DAT is named for the β2-DAT8 constructs)); assay: supported cell membrane sheets (SCMS), confocal microscopy, competition binding; 100 nM labelled SNAP-PICK1 premixed with increasing unlabelled PICK1 WT, 120 min, on sheets expressing TAC-YFP-DAT; half maximal binding reported as Ki*
[3] = target: FLAG-β2 DAT8 LKI (rat (Rattus norvegicus) | human); assay: supported cell membrane sheets (SCMS), confocal microscopy, saturation binding of exchanged dimers; monomers purified in 0.1% TX-100, mixed and diluted at least 100-times to form WT/WT or WT/A87L dimers (A87L in 4 times excess); sheets expressing LKV or LKI; read in the WT and the A87L channel; apparent (Kd*)
[4] = target: FLAG-β2 DAT8 LKI (rat (Rattus norvegicus) | human); assay: supported cell membrane sheets (SCMS), confocal microscopy, association time course; PICK1 binding as a function of incubation time; PICK1 100 nM for LKV and LKI
[5] = target: TAC-YFP-DAT C24 (C-terminus of the dopamine transporter on TAC-YFP) (not stated | not stated (human DAT is named for the β2-DAT8 constructs)); assay: as above
[6] = target: FLAG-β2 DAT8 LKI (rat (Rattus norvegicus) | human); assay: as above; remark: listed apart in the source
[7] = target: FLAG-β2 DAT8 LKI (rat (Rattus norvegicus) | human); assay: supported cell membrane sheets (SCMS), confocal microscopy, dissociation time course; PICK1 dissociation from sheets expressing LKV (two-state fit) or LKI (one-state fit)
[8] = target: FLAG-β2 DAT8 LKA (rat (Rattus norvegicus) | human); assay: supported cell membrane sheets (SCMS), confocal microscopy, saturation binding; labelled PICK1 in sheet buffer (120 mM KCl, 2 mM MgCl2, 0.1 mM CaCl2, 10 mM HEPES, 30 mM glucose pH 7.35) overlaid for 2 h on ice on sheets from transfected HEK293 GripTite cells; PICK1 signal divided by receptor signal; apparent affinity (Kd*), headed EC50 in the tables
[9] = target: FLAG-β2 DAT8 LKI (rat (Rattus norvegicus) | human); assay: as above
[10] = target: TAC-YFP-DAT C24 (C-terminus of the dopamine transporter on TAC-YFP) (not stated | not stated (human DAT is named for the β2-DAT8 constructs)); assay: as above
[11] = target: TAC-YFP-GluA2 (24 C-terminal residues of GluA2 on the IL-2 receptor α-subunit fused to YFP) (not stated | rat (Rattus norvegicus)); assay: as above

Kd [1]: 9000 nM | IC50 [2]: 29 nM
Substance: PICK1 WT without SNAP-tag (from UniProt Q9EP80 1-416) (natural protein)

EC50 [3]: 123 nM
Substance: PICK1 WT/A87L heterodimer (from UniProt Q9EP80 1-416; Q9EP80 1-416) (complex)

time to half maximum binding [4]: 14 min | time to half maximum binding [5]: 19 min | time to half maximum binding [6]: 11 min | dissociation half-life [7]: 7.18 h | EC50 [8]: 59 nM | EC50 [9]: 29 nM | Kd* (apparent affinity) [9]: 39 nM | EC50 [10]: 47 nM | EC50 [11]: 73 nM
Substance: SNAP-PICK1 WT (PICK1 with an N-terminal SNAP-tag, fluorescently labelled) (from UniProt Q9EP80 1-416) (natural protein)
